One data set has as its target AcnB (Escherichia coli, UniProt P36683). Conditions: citrate 0.1 to 50 mM; enzyme reactivated with 1 mM (NH4)2Fe(SO4)2 and 5 mM DTT, 50 mM Tris pH 8.
The target of a further data set is AcnA (Escherichia coli, UniProt P25516). Conditions: citrate 0.1 to 50 mM; enzyme reactivated with 1 mM (NH4)2Fe(SO4)2 and 5 mM DTT, 50 mM Tris pH 8.
Substrate in the data set “purified protein”: O=C(O)CC(O)(CC(=O)O)C(=O)O
Nature of the data set: purified protein. Particulars: citrate 0.1 to 50 mM, enzyme reactivated with 1 mM (NH4)2Fe(SO4)2 and 5 mM DTT, 50 mM Tris pH 8.

For `O=C(O)CC(O)(CC(=O)O)C(=O)O` [citrate], the figures for the Km on AcnB and at AcnA were 9.76 ± 0.67 mM and 3.45 ± 0.23 mM, respectively.

B1: AcnB (Escherichia coli K-12) (protein)
chain: MLEEYRKHVAERAAEGIAPKPLDANQMAALVELLKNPPAGEEEFLLDLLTNRVPPGVDEAAYVKAGFLAAIAKGEAKSPLLTPEKAIELLGTMQGGYNIHPLIDALDDAKLAPIAAKALSHTLLMFDNFYDVEEKAKAGNEYAKQVMQSWADAEWFLNRPALAEKLTVTVFKVTGETNTDDLSPAPDAWSRPDIPLHALAMLKNAREGIEPDQPGVVGPIKQIEALQQKGFPLAYVGDVVGTGSSRKSATNSVLWFMGDDIPHVPNKRGGGLCLGGKIAPIFFNTMEDAGALPIEVDVSNLNMGDVIDVYPYKGEVRNHETGELLATFELKTDVLIDEVRAGGRIPLIIGRGLTTKAREALGLPHSDVFRQAKDVAESDRGFSLAQKMVGRACGVKGIRPGAYCEPKMTSVGSQDTTGPMTRDELKDLACLGFSADLVMQSFCHTAAYPKPVDVNTHHTLPDFIMNRGGVSLRPGDGVIHSWLNRMLLPDTVGTGGDSHTRFPIGISFPAGSGLVAFAAATGVMPLDMPESVLVRFKGKMQPGITLRDLVHAIPLYAIKQGLLTVEKKGKKNIFSGRILEIEGLPDLKVEQAFELTDASAERSAAGCTIKLNKEPIIEYLNSNIVLLKWMIAEGYGDRRTLERRIQGMEKWLANPELLEADADAEYAAVIDIDLADIKEPILCAPNDPDDARPLSAVQGEKIDEVFIGSCMTNIGHFRAAGKLLDAHKGQLPTRLWVAPPTRMDAAQLTEEGYYSVFGKSGARIEIPGCSLCMGNQARVADGATVVSTSTRNFPNRLGTGANVFLASAELAAVAALIGKLPTPEEYQTYVAQVDKTAVDTYRYLNFNQLSQYTEKADGVIFQTAV
For B1, in “purified protein”, the Km stood at 9.34 ± 0.72 mM and the kcat stood at 63.5 ± 4.52 s⁻¹.

B2: AcnA (Escherichia coli K-12) (protein)
chain: SSTLREASKDTLQAKDKTYHYYSLPLAAKSLGDITRLPKSLKVLLENLLRWQDGNSVTEEDIHALAGWLKNAHADREIAYRPARVLMQDFTGVPAVVDLAAMREAVKRLGGDTAKVNPLSPVDLVIDHSVTVDRFGDDEAFEENVRLEMERNHERYVFLKWGKQAFSRFSVVPPGTGICHQVNLEYLGKAVWSELQDGEWIAYPDTLVGTDSHTTMINGLGVLGWGVGGIEAEAAMLGQPVSMLIPDVVGFKLTGKLREGITATDLVLTVTQMLRKHGVVGKFVEFYGDGLDSLPLADRATIANMSPEYGATCGFFPIDAVTLDYMRLSGRSEDQVELVEKYAKAQGMWRNPGDEPIFTSTLELDMNDVEASLAGPKRPQDRVALPDVPKAFAASNELEVNATHKDRQPVDYVMNGHQYQLPDGAVVIAAITSCTNTSNPSVLMAAGLLAKKAVTLGLKRQPWVKASLAPGSKVVSDYLAKAKLTPYLDELGFNLVGYGCTTCIGNSGPLPDPIETAIKKSDLTVGAVLSGNRNFEGRIHPLVKTNWLASPPLVVAYALAGNMNINLASEPIGHDRKGDPVYLKDIWPSAQEIARAVEQVSTEMFRKEYAEVFEGTAEWKGINVTRSDTYGWQEDSTYIRLSPFFDEMQATPAPVEDIHGARILAMLGDSVTTDHISPAGSIKPDSPAGRYLQGRGVERKDFNSYGSRRGNHEVMMRGTFANIRIRNEMVPGVEGGMTRHLPDSDVVSIYDAAMRYKQEQTPLAVIAGKEYGSGSSRDWAAKGPRLLGIRVVIAESFERIHRSNLIGMGILPLEFPQGVTRKTLGLTGEEKIDIGDLQNLQPGATVPVTLTRADGSQEVVPCRCRIDTATELTYYQNDGILHYVIRNMLK
Take B2: in “purified protein”, the Km turned out to be 1.64 ± 0.21 mM and the turnover number (kcat) amounted to 20.6 ± 1.62 s⁻¹.

Values taken from article PMC8987015, “Studying Acetylation of Aconitase Isozymes by Genetic Code Expansion” (Frontiers in Chemistry, 2022).
